In publication PMC6801465, “Efficient Epidermal Growth Factor Receptor Targeting Oligonucleotide as a Potential Molecule for Targeted Cancer Therapy”:

What was measured:
[1] = biological target: T1, EGFR recombinant protein (Sino Biological 10001-H08H) (human, UniProt P00533 25-645); experiment: ELONA; 100 nM aptamer; Binding buffer: serum-free DMEM + 100 ug/mL tRNA; aptamers denatured 95 C 5 min, snap cooled on ice 10 min; ELONA 1 h (temperature not given); flow cytometry Kd; conditions: protein: commercial; label: 5'-biotin (ELONA)
[2] = biological target: T1, EGFR recombinant protein (Sino …); experiment: ELONA; Binding buffer: serum-free DMEM + 100 ug/mL tRNA; aptamers denatured 95 C 5 min, snap cooled on ice 10 min; ELONA 1 h (temperature not given); flow cytometry Kd; conditions: protein: commercial, label: 5'-biotin (ELONA)

Binder	binding result [1]	further results
TGCTTTGATGTCGATTCGACAGGAGGC (structured_DNA, none (all DNA)) [CL-4RNV618]	no binding	–
GCCUUAGUAACGUGCUUUGAUGUCGAUUCGACAGGAGGC (XNA, 2'-F on all C and U; A and G are RNA) [CL-4]	–	Kd [2]: 13.3 nM
UGCUUUGAUGUCGAUUCGACAGGAGGC (XNA, 2'-OMe on U, G, C; all A (positions 8, 14, 19, 21, 24) are DNA) [CL-4RNV616]	–	Kd ([2]; 5'-FAM (cells)): 18.2 nM
UGCUUUGAUGUCGAUUCGACAGGAGGC (structured_RNA, none (all RNA)) [CL-4RNV617]	no binding	–
